To fix the notation:
B1: LK-RB1-31 (antibody, human IgG4 S228P, kappa, V domains shown)
VH: QVQLKESGPGLVAPSQSLSITCTVSGFSLTSYGVSWVRQPPGKGLEWLGIIWGDGSTNYHSALKSRLSISKDNSKSQVFLKLNSLQTEDTATYYCAKPNWDYYAMDYWGQGTSVTVSS
VL: DIQMTQTTSSLSASLGDRVTISCRASQDISNYLNWYLQKPDGTVKLLIYYTSRLHSGVPSRFSGSGSGTDYSLTISNLEQEDIATYFCQQGITLPCTFGGGTKLEIKR
B2: LK-RB1-35 (antibody, human IgG4 S228P, kappa, V domains shown)
VH: DVQLQESGPGLEKPSQSLSLTCSVTGYSITRGYQWNWIRQFPGNKLEWMGYISYDGSNNYNPSLKNRISITRDASKNQFFLKLNSVTTEDTATYYCARRSYNSIDYWGQGTTLTVSS
VL: DIVLTQSPATLSVTPGDSVSLSCRASQSISSNLHWYQQKSHESPRLLIKYASQSISGIPSRFSGSGSGTDFTLSINSVETEDFGMYFCQQSNSWPLTFGAGTKLELKR
B3: LK-RB1-36 (antibody, human IgG4 S228P, kappa, V domains shown)
VH: B2 VH with T71I, A74T
VL: B2 VL with S31N
B4: LK-RB1-17 (antibody, human IgG4 S228P, kappa, V domains shown)
VH: QVQLQQPGAELVKPGASVKLSCEASGYTFTNYWIHWVKQRPGRGLEWIGRIAPNSGGTKYNEKFKTRATLTVDKASTTAYMQLSSLTSEDSAVYYCARLDGSPYYFDYWGQGTTLTVSS
VL: DIVMTQSQKFMSTSIGDRVSVTCKASQNVDTNVAWYQQKPGQSPKALIYSASYRYSGIPDRFTGSGSGTDFTLTISNVQSEDLAEYFCQQYNSYPYTFGGGTKLEIKR
B5: LK-RB1-28 (antibody, human IgG4 S228P, kappa, V domains shown)
VH: QVQLQQSGPELVKPGTSVKMSCKASGYTFTSHYIHWMKQRPGQGLDWIGWIYPGDGHTKYHEKFKGKATLTADTSSITAYMQLSLLTSEDSAVYYCVYYSDSWFPYWGQGTLVTVSA
VL: DIQMTQSPASLSVSVGETVTITCRASENIYSNLAWYQQKQGKSPQLLVYAATNLADGVPSRFSGSGSGTQYSLKINSLQSEDFGNYFCQHFWGSPWTFGGGTKLEIKR
B6: LK-RB1-32 (antibody, human IgG4 S228P, kappa, V domains shown)
VH: QVQLQQSGAELAKPGASVKLSCTASGYTFTTYLMHWVKQRPAQGLEWIGYINPSNDFTKYNQKFKDKATLTADTSSSTAYMQLNSLTFEDSAVYYCARNSDYDPSYWGQGTTLTVSS
VL: DIQMTQSPASLSVSVGETVTITCRASENIYSSLAWYQQKQGKSPQLLVYAATNLADGVPSRFSGSGSGTQYSLKINSLQSEDFGNYYCQHFWGTWAFGGGTKLEIKR
B7: LK-RB1-54 (antibody, human IgG4 S228P, kappa, V domains shown)
VH: DVQLQESGPGLVKPSQSLSLTCSVTGYSITSGFYWNWIRQFPGNKLEWMGHISYDGTNNYNPSLKNRISITRDTSKNLFFLKLNSVTTEDTATFHCARGGYGGSYGFDYWGQGTTLTVSS
VL: ENVLTQSPAIMSASLGEKVTMSCRASSSVNYMYWYQQKSDASPKLWIYYTSNLAPGVPVRFSGSGSGNSYSLTISSMEGEDAATYYCQQFTSSPWTFGGGTKLEIKR
B8: LK-RB1-43 (antibody, human IgG4 S228P, kappa, V domains shown)
VH: EFQLQQSGPELMKPGASVKISCKASGYSFTDYNMNWVKQSNGKSLEWIGIIDPNYGTTTYNQKFKGRATLTVDQSSNTAYMQLNSLTSEDSAVYYCAREGRYSWFAYWGQGTLVTVSA
VL: B5 VL with A9G, S10A, Y30N, N85S, F87H, S94T, W96F, G100S

These results are taken from US20260234247A1 (published 2026).

Substitutions are numbered along the chain they refer to.

In one assay the target is T1, human LILRB1 on CHOK1 cells (human, UniProt Q8NHL6 24-650).
T1 construct: whole, on cells; also called CHOK1-hLILRB1; CHOK1-LILRB1
T1 sequence (Q8NHL6 24-650): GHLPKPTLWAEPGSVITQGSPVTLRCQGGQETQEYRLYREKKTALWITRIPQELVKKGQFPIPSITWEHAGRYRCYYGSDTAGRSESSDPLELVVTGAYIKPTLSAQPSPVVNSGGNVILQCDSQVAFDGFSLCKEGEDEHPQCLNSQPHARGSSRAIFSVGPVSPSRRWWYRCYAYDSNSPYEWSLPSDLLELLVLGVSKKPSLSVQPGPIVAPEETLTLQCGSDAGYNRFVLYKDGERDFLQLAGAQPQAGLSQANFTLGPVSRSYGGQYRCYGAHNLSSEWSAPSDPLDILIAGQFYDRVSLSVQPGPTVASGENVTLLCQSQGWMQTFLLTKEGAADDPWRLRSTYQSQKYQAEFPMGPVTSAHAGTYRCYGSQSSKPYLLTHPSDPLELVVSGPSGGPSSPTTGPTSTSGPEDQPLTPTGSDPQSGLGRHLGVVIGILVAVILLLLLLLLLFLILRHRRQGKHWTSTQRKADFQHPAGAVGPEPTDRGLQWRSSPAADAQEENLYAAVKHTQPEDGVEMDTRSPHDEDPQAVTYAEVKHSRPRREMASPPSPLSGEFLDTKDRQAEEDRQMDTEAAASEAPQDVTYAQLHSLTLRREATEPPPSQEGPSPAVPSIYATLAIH
As to the kind of experiment: FACS binding, CHOK1-hLILRB1 cells. A general note: A flow cytometer gives signals particle by particle.
As a reminder, the EC50 is the midpoint of the concentration-response curve. Lower therefore signals an effect from little substance. In turn, B1 showed an EC50 of 2.91 nM. The same measure, in the same setting: the value for B2 was 0.44 nM; that for B3 was 0.46 nM; that for B4 was 5.53 nM. Still for that read-out and setting: then B5, with 1.33 nM.

In the case of B6, the concentration for a half-maximal effect (EC50) came to 2.44 nM.

The target of another assay is T2, human LILRB2 on CHOK1 cells (human, UniProt Q8N423 22-597).
T2 construct: whole, on cells; also called CHOK1-hLILRB2; CHOK1-LILRB2
T2 sequence (Q8N423 22-597): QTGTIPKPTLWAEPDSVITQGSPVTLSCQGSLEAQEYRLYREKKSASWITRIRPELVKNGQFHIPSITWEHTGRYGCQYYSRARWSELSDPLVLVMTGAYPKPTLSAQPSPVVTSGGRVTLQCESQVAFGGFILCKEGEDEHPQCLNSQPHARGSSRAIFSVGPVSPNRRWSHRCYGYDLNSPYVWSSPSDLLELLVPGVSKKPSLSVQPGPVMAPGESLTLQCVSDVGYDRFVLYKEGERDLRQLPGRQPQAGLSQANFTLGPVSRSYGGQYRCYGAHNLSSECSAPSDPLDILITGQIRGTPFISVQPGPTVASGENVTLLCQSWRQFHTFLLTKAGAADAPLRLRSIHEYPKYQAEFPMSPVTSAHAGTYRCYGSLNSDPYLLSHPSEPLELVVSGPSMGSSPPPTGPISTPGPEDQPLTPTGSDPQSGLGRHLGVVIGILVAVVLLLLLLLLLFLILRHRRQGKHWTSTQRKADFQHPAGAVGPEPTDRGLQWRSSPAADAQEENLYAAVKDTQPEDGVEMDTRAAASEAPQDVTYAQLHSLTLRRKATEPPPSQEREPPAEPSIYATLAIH
As to the kind of experiment: FACS binding, CHOK1-hLILRB2 cells.
Turning to B1, the binding result was “no binding”. For the molecule B7, the binding result was “no binding”. Regarding B2, the binding result was “no binding”. Turning to B3, the binding result is given as “no binding”.

In turn, B4 registered an EC50 of 47.4 nM. The same measure, in the same setting: the value for B5 was 5.72 nM. For B8, the binding result was “no binding”. Take B6: the binding result is on record as “no binding”.
